Test results published in article PMC9019248.

Biological target: calmodulin-Sepharose, P0DP23
Test: pull-down
Conditions: remark: other sources report otherwise

| Binder | percent reduction of binding with EGTA against Ca2+ | fold more bound with Ca2+ than with EGTA |
| --- | --- | --- |
| purified recombinant human LATS1 (active kinase), O95835 1-1130 (enzyme) MKRSEKPEGYRQMRPKTFPASNYTVSSRQMLQEIRESLRNLSKPSDAAKAEHNMSKMSTEDPRQVRNPPKFGTHHKALQEIRNSLLPFANETNSSRSTSEVNPQMLQDLQAAGFDEDMVIQALQKTNNRSIEAAIEFISKMSYQDPRREQMAAAAARPINASMKPGNVQQSVNRKQSWKGSKESLVPQRHGPPLGESVAYHSESPNSQTDVGRPLSGSGISAFVQAHPSNGQRVNPPPPPQVRSVTPPPPPRGQTPPPRGTTPPPPSWEPNSQTKRYSGNMEYVISRISPVPPGAWQEGYPPPPLNTSPMNPPNQGQRGISSVPVGRQPIIMQSSSKFNFPSGRPGMQNGTGQTDFMIHQNVVPAGTVNRQPPPPYPLTAANGQSPSALQTGGSAAPSSYTNGSIPQSMMVPNRNSHNMELYNISVPGLQTNWPQSSSAPAQSSPSSGHEIPTWQPNIPVRSNSFNNPLGNRASHSANSQPSATTVTAITPAPIQQPVKSMRVLKPELQTALAPTHPSWIPQPIQTVQPSPFPEGTASNVTVMPPVAEAPNYQGPPPPYPKHLLHQNPSVPPYESISKPSKEDQPSLPKEDESEKSYENVDSGDKEKKQITTSPITVRKNKKDEERRESRIQSYSPQAFKFFMEQHVENVLKSHQQRLHRKKQLENEMMRVGLSQDAQDQMRKMLCQKESNYIRLKRAKMDKSMFVKIKTLGIGAFGEVCLARKVDTKALYATKTLRKKDVLLRNQVAHVKAERDILAEADNEWVVRLYYSFQDKDNLYFVMDYIPGGDMMSLLIRMGIFPESLARFYIAELTCAVESVHKMGFIHRDIKPDNILIDRDGHIKLTDFGLCTGFRWTHDSKYYQSGDHPRQDSMDFSNEWGDPSSCRCGDRLKPLERRAARQHQRCLAHSLVGTPNYIAPEVLLRTGYTQLCDWWSVGVILFEMLVGQPPFLAQTPLETQMKVINWQTSLHIPPQAKLSPEASDLIIKLCRGPEDRLGKNGADEIKAHPFFKTIDFSSDLRQQSASYIPKITHPTDTSNFDPVDPDKLWSDDNEEENVNDTLNGWYKNGKHPEHAFYEFTFRRFFDDNGYPYNYPKPIEYEYINSQGSEQQSDEDDQNTGSEIKNRDLVYV | 70.9% |  |
| large tumor suppressor 1 kinase (endogenous, HEK293 cells), O95835 1-1130 (enzyme) MKRSEKPEGYRQMRPKTFPASNYTVSSRQMLQEIRESLRNLSKPSDAAKAEHNMSKMSTEDPRQVRNPPKFGTHHKALQEIRNSLLPFANETNSSRSTSEVNPQMLQDLQAAGFDEDMVIQALQKTNNRSIEAAIEFISKMSYQDPRREQMAAAAARPINASMKPGNVQQSVNRKQSWKGSKESLVPQRHGPPLGESVAYHSESPNSQTDVGRPLSGSGISAFVQAHPSNGQRVNPPPPPQVRSVTPPPPPRGQTPPPRGTTPPPPSWEPNSQTKRYSGNMEYVISRISPVPPGAWQEGYPPPPLNTSPMNPPNQGQRGISSVPVGRQPIIMQSSSKFNFPSGRPGMQNGTGQTDFMIHQNVVPAGTVNRQPPPPYPLTAANGQSPSALQTGGSAAPSSYTNGSIPQSMMVPNRNSHNMELYNISVPGLQTNWPQSSSAPAQSSPSSGHEIPTWQPNIPVRSNSFNNPLGNRASHSANSQPSATTVTAITPAPIQQPVKSMRVLKPELQTALAPTHPSWIPQPIQTVQPSPFPEGTASNVTVMPPVAEAPNYQGPPPPYPKHLLHQNPSVPPYESISKPSKEDQPSLPKEDESEKSYENVDSGDKEKKQITTSPITVRKNKKDEERRESRIQSYSPQAFKFFMEQHVENVLKSHQQRLHRKKQLENEMMRVGLSQDAQDQMRKMLCQKESNYIRLKRAKMDKSMFVKIKTLGIGAFGEVCLARKVDTKALYATKTLRKKDVLLRNQVAHVKAERDILAEADNEWVVRLYYSFQDKDNLYFVMDYIPGGDMMSLLIRMGIFPESLARFYIAELTCAVESVHKMGFIHRDIKPDNILIDRDGHIKLTDFGLCTGFRWTHDSKYYQSGDHPRQDSMDFSNEWGDPSSCRCGDRLKPLERRAARQHQRCLAHSLVGTPNYIAPEVLLRTGYTQLCDWWSVGVILFEMLVGQPPFLAQTPLETQMKVINWQTSLHIPPQAKLSPEASDLIIKLCRGPEDRLGKNGADEIKAHPFFKTIDFSSDLRQQSASYIPKITHPTDTSNFDPVDPDKLWSDDNEEENVNDTLNGWYKNGKHPEHAFYEFTFRRFFDDNGYPYNYPKPIEYEYINSQGSEQQSDEDDQNTGSEIKNRDLVYV |  | 11 fold |
